Patent US20050233963A1 (SCIENCE AND TECHNOLOGY CORPORATION UNM, published 2005)

What was measured:
[1] = target: T1, hsc70 (constitutively expressed form of hsp70) (UniProt P11142 1-646); experiment: far-western, GST fusion probe on blotted 20 ng protein
T1 construct: also called hs70 (printed for both hsp70 and hsc70); pure hsc70

[2] = target: T2, hsp70 (heat shock protein 70) (UniProt P0DMV8 1-641); experiment: as above
T2 construct: also called hs70 (printed for both hsp70 and hsc70); pure hsp70
T2 sequence (P0DMV8 whole entry): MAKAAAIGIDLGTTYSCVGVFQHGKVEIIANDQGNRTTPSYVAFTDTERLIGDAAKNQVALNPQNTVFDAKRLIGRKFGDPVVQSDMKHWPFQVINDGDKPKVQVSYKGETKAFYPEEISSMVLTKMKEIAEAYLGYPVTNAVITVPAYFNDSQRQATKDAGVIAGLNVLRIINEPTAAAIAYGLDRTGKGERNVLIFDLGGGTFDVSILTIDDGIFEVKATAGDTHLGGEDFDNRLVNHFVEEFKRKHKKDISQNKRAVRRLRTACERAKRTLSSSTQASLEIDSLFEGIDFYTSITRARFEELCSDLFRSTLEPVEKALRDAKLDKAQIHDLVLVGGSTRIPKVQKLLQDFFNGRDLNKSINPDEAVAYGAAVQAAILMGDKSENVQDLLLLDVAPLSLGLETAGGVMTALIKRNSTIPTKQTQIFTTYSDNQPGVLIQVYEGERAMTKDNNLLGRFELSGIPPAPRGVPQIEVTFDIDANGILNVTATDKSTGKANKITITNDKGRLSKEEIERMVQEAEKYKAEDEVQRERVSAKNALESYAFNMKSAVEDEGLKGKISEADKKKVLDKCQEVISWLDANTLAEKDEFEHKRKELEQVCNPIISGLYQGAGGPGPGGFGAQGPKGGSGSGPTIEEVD

T1 sequence (P11142 whole entry, the tested form may be a part): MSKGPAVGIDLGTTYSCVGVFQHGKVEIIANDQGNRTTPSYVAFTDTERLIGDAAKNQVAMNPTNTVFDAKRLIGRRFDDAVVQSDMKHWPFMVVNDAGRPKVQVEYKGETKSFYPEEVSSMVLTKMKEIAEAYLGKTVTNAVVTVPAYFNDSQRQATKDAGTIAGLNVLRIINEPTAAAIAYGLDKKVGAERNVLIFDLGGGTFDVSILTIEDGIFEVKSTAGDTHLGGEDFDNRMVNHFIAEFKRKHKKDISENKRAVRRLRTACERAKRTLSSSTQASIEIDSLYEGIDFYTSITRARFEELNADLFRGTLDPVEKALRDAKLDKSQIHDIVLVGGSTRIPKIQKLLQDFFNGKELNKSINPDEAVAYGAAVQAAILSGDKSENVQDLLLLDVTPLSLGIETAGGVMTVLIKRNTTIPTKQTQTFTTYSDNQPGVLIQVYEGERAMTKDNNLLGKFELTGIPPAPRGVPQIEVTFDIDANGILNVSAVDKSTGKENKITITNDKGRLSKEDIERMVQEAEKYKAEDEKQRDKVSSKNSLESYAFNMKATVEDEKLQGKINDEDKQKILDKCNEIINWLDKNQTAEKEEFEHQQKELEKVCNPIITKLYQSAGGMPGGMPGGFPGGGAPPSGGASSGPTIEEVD

Binder	binding result [1]	binding result [2]
GST-UBP C1/2 (a.a. 145-313) (other, UniProt O43765 145-313, looked up, also called C/2; not shown: glutathione S-transferase (GST) fusion partner) VQDCERAICIDPAYSKAYGRMGLALSSLNKHVEAVAYYKKALELDPDNETYKSNLKIAELKLREAPSPTGGVGSFDIAGLLNNPGFMSMASNLMNNPQIQQLMSGMISGGNNPLGTPGTSPSQNDLASLIQAGQQFAQQMQQQNPELIEQLRSQIRSRTPSASNDDQQE	no binding	no binding
GST-UBP N1/2 (a.a. 1-145) (other, UniProt O43765 1-145, looked up, not shown: glutathione S-transferase (GST) fusion partner) MDNKKRLAYAIIQFLHDQLRHGGLSSDAQESLEVAIQCLETAFGVTVEDSDLALPQTLPEIFEAAATGKEMPQDLRSPARTPPSEEDSAEAERLKTEGNEQMKVENFEAAVHFYGKAIELNPANAVYFCNRAAAYSKLGNYAGAV	no binding	no binding
